Results published in the supplement of paper PMC10567573.

B1: MFF (parent)
chain: MAEISRIQYEMEYTEGISQRMRVP

Variants of: B1
Assay: protein stability index of a GFP-peptide fusion (GPS, HEK-293T) (PSI 1-6); higher = more stable
Settings: c terminus: a fixed tail appended
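Note: lentivirally expressed fusions sorted by FACS into six bins by GFP to DsRed ratio, PSI derived from sequencing read proportions per bin multiplied by bin number.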

| Variant | protein stability index |
| --- | --- |
| Q19P | 2.77 |
| Q19M | 2.65 |
| Q19A | 2.47 |
| Q19V | 1.62 |
| Q19H | 2.34 |
| Q19C | 2.41 |
| Q19R | 2.59 |
| Q19N | 3.06 |
| E15Y | 2.03 |
| E15W | 1.77 |
| E15R | 2.45 |
| E15D | 2.64 |
| E15L | 1.66 |
| E15S | 1.94 |
| E15P | 1.96 |
| E15T | 2.56 |
| I7D | 3.8 |
| I7F | 2.69 |
| I7K | 3.34 |
| I7C | 2.56 |
| I7W | 2.02 |
| I7Y | 2.58 |
| I7H | 3 |
| I7Q | 3.43 |

| Variant | protein stability index |
| --- | --- |
| Y9H | 3.09 |
| Y9W | 2.28 |
| Y9D | 3.85 |
| Y9G | 3.6 |
| Y9F | 2.11 |
| Y9Q | 3.35 |
| Y9L | 2.28 |
| Y9T | 3.22 |
| Y9K | 2.95 |
| Y9M | 2.42 |
| Y9S | 3.42 |
| M11Q | 3.35 |
| M11H | 3.38 |
| M11S | 3.19 |
| M11K | 3.27 |
| M11P | 3.2 |
| M11T | 3.15 |
| M11A | 3.68 |
| V23N | 2.61 |
| V23P | 2.54 |
| V23L | 2.46 |
| V23Y | 2.41 |
| V23Q | 2.99 |
| V23M | 2.63 |

| Variant | protein stability index |
| --- | --- |
| V23H | 2.54 |
| V23K | 3.43 |
| A2L | 1.86 |
| A2T | 2.74 |
| A2F | 1.58 |
| A2E | 3.33 |
| A2R | 2.54 |
| A2P | 3.33 |
| T14P | 2.55 |
| T14Y | 2.04 |
| T14V | 2.56 |
| T14Q | 3.08 |
| T14D | 4.16 |
| T14E | 3.22 |
| T14K | 3.28 |
| T14N | 3.15 |
| T14A | 2.68 |
| I4N | 3.71 |
| I4F | 2.56 |
| I4T | 3.86 |
| I4S | 3.42 |
| I4V | 2.74 |
| I4A | 3.38 |
| I4K | 3.58 |

| Variant | protein stability index |
| --- | --- |
| I4W | 2.89 |
| I4P | 3.55 |
| R6T | 2.93 |
| R6Q | 3.34 |
| R6I | 1.63 |
| R6V | 2.03 |
| R6H | 3 |
| R6S | 3.37 |
| R6E | 3.42 |
| E10V | 1.89 |
| E10C | 1.99 |
| E10D | 2.74 |
| E10A | 2.15 |
| M1I | 2.36 |
| M1G | 3.14 |
| M1Q | 3.56 |
| M1Y | 1.9 |
| M1P | 3.45 |
| Y13W | 2.77 |
| Y13P | 3.69 |
| Y13G | 3.66 |
| Y13A | 2.73 |
| R20G | 2.14 |
| R20V | 2.17 |

| Variant | protein stability index |
| --- | --- |
| R20S | 2.27 |
| R20A | 2.01 |
| R20Y | 1.58 |
| R20P | 2.73 |
| P24E | 2.74 |
| P24G | 2.44 |
| P24R | 2.87 |
| Q8A | 2.31 |
| Q8W | 1.49 |
| Q8H | 2.47 |
| Q8E | 3.02 |
| Q8T | 2.38 |
| Q8L | 1.6 |
| Q8V | 1.45 |
| Q8G | 2.9 |
| Q8P | 3.03 |
| Q8Y | 1.75 |
| I17T | 3.4 |
| I17F | 1.99 |
| I17S | 3.52 |
| I17A | 3.03 |
| I17R | 3.67 |
| I17L | 2.52 |
| I17Q | 3.76 |

| Variant | protein stability index |
| --- | --- |
| I17V | 2.96 |
| S5Q | 2.36 |
| S5V | 2.02 |
| S5W | 2.46 |
| S5D | 3.39 |
| S5K | 2.17 |
| S5I | 2.11 |
| S5T | 2.02 |
| S5H | 2.47 |
| G16F | 1.82 |
| G16A | 2.69 |
| G16T | 2.22 |
| G16I | 1.62 |
| G16Q | 2.29 |
| G16P | 3.13 |
| G16N | 2.72 |
| G16Y | 1.48 |
| E3H | 2.93 |
| E3F | 1.76 |
| E3V | 1.98 |
| E3N | 2.41 |
| E3C | 2.45 |
| E3G | 2.96 |
| E12H | 2.26 |

| Variant | protein stability index |
| --- | --- |
| E12V | 1.76 |
| E12Q | 1.87 |
| E12T | 1.86 |
| E12I | 1.28 |
| E12L | 1.74 |
| M21Q | 3.12 |
| M21R | 3.9 |
| M21I | 2.42 |
| M21F | 2.38 |
| M21G | 3.62 |
| R22K | 2.8 |
| R22D | 2.6 |
| R22T | 2.98 |
| R22V | 2.9 |
| R22P | 2.56 |
| R22A | 2.63 |
| R22M | 2.38 |
| S18G | 2.51 |
| S18R | 2.27 |
| S18D | 2.97 |
| S18K | 2.27 |
| S18V | 1.74 |
| S18Y | 1.92 |
